Laboratory results: PMC4705524

Assays:
[1] = target: Pfs25-IMX313 protein-nanoparticle (P. pastoris) (Plasmodium falciparum | chicken) (UniProt P13829); experiment: non-reducing SDS-PAGE with western blot; protein purified from P. pastoris supernatant, 500 ng per lane, reduced and non-reduced conditions, detected with anti-Pfs25 mAb 4B7
[2] = target: Pfs25-IMX313 (HEK293 cells, pENTR4-LPTOS shuttle plasmid) (Plasmodium falciparum | chicken) (UniProt P13829); experiment: non-reducing SDS-PAGE with western blot; 15 μL supernatant of transfected HEK293 cells per lane, reduced and non-reduced conditions, detected with anti-Pfs25 mAb 4B7

| Substance | stoichiometry N [1] | stoichiometry N [2] |
| --- | --- | --- |
| Pfs25-IMX313 protein-nanoparticle (P. pastoris) (from UniProt P13829 22-193) | 7 | – |
| Pfs25-IMX313 (HEK293 cells, pENTR4-LPTOS shuttle plasmid) (from UniProt P13829 22-193) | – | 7 |
